In general, Kd refers to the concentration at which binding is half-saturated. Lower therefore signals higher affinity.

Sequences and labels used below:
T1: human CD7 (cluster of differentiation 7) (human, UniProt P09564 26-240)
T1 construct: also called CD7 target antigen; CD7 surface marker
T1 sequence: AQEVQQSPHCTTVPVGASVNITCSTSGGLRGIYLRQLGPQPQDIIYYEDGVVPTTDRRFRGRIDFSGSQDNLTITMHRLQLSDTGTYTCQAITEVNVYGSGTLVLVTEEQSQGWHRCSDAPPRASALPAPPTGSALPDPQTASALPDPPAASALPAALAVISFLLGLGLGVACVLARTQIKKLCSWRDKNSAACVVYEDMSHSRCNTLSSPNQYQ

B1: SEQ ID NO 4 (VHH)
VHH: QVQLQESGGGLVQAGDSLRLSCAASGLTVSSYGMGWFRQAPGKEREFVVDISRGGGSTSYADSVKGRFTIARDNAKNTLYLQMNSLKPEDTAVYSCAARKYAHYEYWGQGTQVTVSS
notes: Single domain antibody against human CD7; also called anti-CD7 sdAb
B2: SEQ ID NO 9 (VHH)
VHH: QVQLQESGGGLVQAGDSLRLSCAASGLTVSSYGMGWFRQAPGKEREFVADISRGGGSTLYADSVKGRFTISRDNGKNTLYLQINSLKPEDTAVYSCAARKYAEWDYWGQGTQVTVSS
notes: as for B1
B3: SEQ ID NO 7 (VHH)
VHH: QVQLQESGGGLVQAGDSLRLSCAASGLTVSMYGMGWFRQAPGKEREFVADISRGGGSTSYTDSVKGRFTISRDNAKNTLYLQMNSLKPEDTAVYSCAARKYAHYEYRGQGTQVTVSS
notes: as for B1
B4: SEQ ID NO 8 (VHH)
VHH: QVQLQESGGGLVQTGDSLRLSCAASGLTVSSYGMGWFRQAPGKEREFVADISRGGGSTLYADSVKGRFTISRDNLKNTLYLQMNSLKPEDTAVYSCAARKYAEWNYWGQGTQVTVSS
notes: as for B1
B5: SEQ ID NO 2 (VHH)
VHH: QVQLQESGGGLVQAGGSLRLSCAASGRTFSDYLMGWFRQTPGKEREFVAAIYWNAGSTYYADSVKGRFTISRDNTKNTMYLQMNSLKPEDTAVYYCAAGQRGLAYARTYDYDYWGQGTQVTVSS
notes: as for B1
B6: SEQ ID NO 13 (VHH)
VHH: QVQLQESGGGLVQSGGSLRLSCAASRRIFEINVMGWYRQAPEKQRELVGTITSFGGTNYADSVKGRFTISADYAKNTMYLQMNSLNPEDTAVYYCNAHYFSNDYWGQGTQVTVSS
notes: as for B1

This assay concerns the target T1, human CD7 (cluster of differentiation 7). As to the kind of experiment: flow cytometry titration on human CD8+ T cells, one-site specific binding fit. For orientation: Flow cytometry measures light scatter and fluorescence of single cells or particles in a stream.
For B1, binding was characterised by a dissociation constant (Kd) of 5.66 nM.

For B2, binding was put at a Kd of 4.04 nM.

Regarding B3, the Kd was determined as 11 nM.

Take B4: binding was put at a Kd of 8.16 nM.

In turn, B5 displayed a Kd of 6.34 nM.

B6: the Kd was 3.9 nM.

These data come from patent EP4600270A1 (ImnoTech GmbH, dated 2025).
